Data as given in article PMC3374832, “The Structure of the Oligomerization Domain of Lsr2 from Mycobacterium tuberculosis Reveals a Mechanism for Chromosome Organization and Protection” (PLoS ONE, 2012).

Target: the molecule itself
Experiment: SEC; S75 16/60GL or 10/300GL column, 20 mM tris-HCl pH 7.5, 150 mM NaCl; fresh sample, 14-week-old sample and sample treated with trypsin (1:500, 5 min, room temperature)

B1: Lsr2 N-terminal dimerization domain, construct Nterm2 (residues 1-61), freshly purified (domain or fragment)
chain: MAKKVTVTLVDDFDGSGAADETVEFGLDGVTYEIDLSTKNATKLRGDLKQWVAAGRRVGGR
notes: Lsr2 (Rv3597c) of Mycobacterium tuberculosis H37Rv, residues 1-61; also called N-Lsr2; Lsr2 N-terminal domain; not shown: His6, N-terminal, kept
stoichiometry N: 2
